Reference: US20220348635A1, “COMPOSITIONS AND METHODS FOR NEUROLOGICAL DISEASES” (Coda Biotherapeutics, Inc., priority 2019, published 2022)

Legend:
Assay type in all cases: cell-based
[1] = YFP quench plate reader assay, response to RG3487; conditions: LX293T YFP reporter cells
Text: (§1) FIGS. 1A-FIG. 1G show the heat maps of the percent quench of YFP fluorescence in the mutants of the engineered chimeric receptor SEQ ID NO:33 that comprise the indicated double amino acid substitutions following stimulation by various doses of either acetylcholine or the indicated non-native ligand. Ligand doses are written across the top of each chart. Numbers in the boxes indicate the absolute amount of quench observed. Dark blue=80% maximal quench of YFP reporter. Light blue=quench of 30-80%. White=10-30%. Orange=0-10% quench. Negative values represent non-responders that have a negative quench due to a stimulation artifact. SEQ ID NO:29 is a non-responding chimera used as a negative control. Abbreviations for non-native ligand names: abt: ABT-126; ach: acetylcholine; apn: APN-1125; azd: AZD-0328; brd: TC-5619; fac: RG3487; tc6: TC-6987.
(§2) Tables 2-8 below lists percent quench of YFP fluorescence following stimulation of the indicated engineered receptor by various doses of either acetylcholine or the non-native ligand.
(§3) To screen these mutant LGICs for those having novel response profiles to ligands, an anion reporter assay was developed to assess the function of channels in a high throughput format. In this assay, cells expressing a YFP reporter whose fluorescence is quenched in the presence of anion are transfected with DNA encoding the channel of interest. Upon exposure to ligand, channels that are activated will flux anion, resulting in a dose-dependent quench of the YFP that can be detected on a plate reader.
(§4) Lenti-X 293T cells (LX293T, Clontech) were maintained in DMEM containing 10% FBS and 1% penicillin/streptomycin (Invitrogen). […] Two days before assay, cells were split at a density of 20,000 cells/well in a 96-well tissue culture plate coated with poly-d lysine (Thermo Scientific). The next day, the cells were transiently transfected with 0.1 μg of DNA per well using standard Fugene protocol (Promega). On the day of assay, cells were washed 2 times in 1× extracellular solution (1×ECS: 140 mM NaCl, 5 mM KCl, 1 mM MgCl2, 2 mM CaCl2, 10 mM HEPES, 10 mM glucose, pH 7.2, mOsms 300). After the last wash, 100 μL of 1×ECS was added to the wells and the plate was incubated at 37° C. for 30 min. While incubating the plate, the drugs were diluted to a 2× concentration in 1×ECS-NaI (same components as 1×ECS except the 140 mM NaCl was replaced by 140 mM NaI). The plates were then read on a Flexstation3 (Molecular Devices). Each well, 8 wells at a time, of the plate is read for 2 min using a Flexstation3 (Molecular Devices) as follows: 1) a baseline YFP fluorescence is read for 17 sec, 2) 100 μL of ligand is added, and 3) the changes in YFP fluorescence are then measured every 1.3 sec for the remaining time.
(§5) FIG. 1 provides heat maps of the percent quench of YFP fluorescence following stimulation by various doses of either acetylcholine or the non-native ligand as indicated in the Figure. A positive fluorescence signal, as indicated by blue shaded cells, indicate that the engineered receptor is activated by the non-native ligand at that concentration. […] Table 12 lists the EC50 values for the indicated double mutants to acetylcholine (Ach) and TC-5619 as determined from the YFP fluorescence plate reader experiment.

[2] = YFP quench plate reader assay, response to acetylcholine; conditions: LX293T YFP reporter cells
Text: as §1, §2, §3, §4, §5

[3] = YFP quench plate reader assay, response to AZD-0328; conditions: LX293T YFP reporter cells
Text: as §1, §2, §3, §4, §5

[4] = YFP quench plate reader assay, response to TC-6987; conditions: LX293T YFP reporter cells
Text: as §1, §2, §3, §4, §5

[5] = YFP quench plate reader assay, response to APN-1125; conditions: LX293T YFP reporter cells
Text: as §1, §2, §3, §4, §5

[6] = YFP quench plate reader assay, response to ABT-126; conditions: LX293T YFP reporter cells
Text: as §1, §2, §3, §4, §5

[7] = High throughput electrophysiology in HEK293T cells, AZD-0328; conditions: HEK293T cells, held at −60 mV
Procedure: To confirm the EC50s determined by plate reader as well as develop a better understanding of maximum current flow, the engineered receptors were subjected to high throughput electrophysiology system, as described below. For HEK293T studies, cDNAs encoding ion channels were cloned into pcDNA3.1 using standard recombination techniques. HEK293T cells from Clontech (Lenti-X™ 293T Cell Line) were cultured in DMEM supplemented with 10% FBS and 1% Pen/Strep to 40-50% confluence using standard cell culture protocols, transfected with ion channel plasmids at a concentration of 18 μg per 15 cm dish using Fugene 6, and grown for an additional 24 hours. Cells were then assayed on a electrophysiological system (IonFluxHT and/or Mercury, Fluxion Biosciences) in which dose-response relationships may be assessed through a microfluidics-based platform for establishing whole cell configurations. Ensemble plates were primed with extracellular buffer (140 mM NaCl, 5 mM KCl, 2 mM CaCl2), 1 mM MgCl2, 10 mM HEPES, and 10 mM glucose, pH 7.2 with NaOH, mOsm 310), intracellular buffer (145 mM CsCl, 2 mM CaCl2, 2 mM MgCl2, 10 mM HEPES, and 10 mM EGTA, pH 7.2 with CsOH, mOsm 305), as adapted from Lynagh and Lynch, and test compounds (stocks prepared fresh) diluted in extracellular buffer. Cells were then released from the plate with Accutase, centrifuged, resuspended in extracellular buffer, and loaded into Ensemble plates. Cells were then subjected to a standard protocol for priming, trapping, breaking, and establishing whole cell configuration, with cells held at −60 mV throughout the recording. After recording baseline, progressive doses of test compounds were applied using the IonFlux software to assess dose response relationships. Data were then analyzed off-line using custom Python scripts to convert data to .csv format, re-plot traces, and apply QC measurements to reject unstable recordings (i.e. thresholding based on access resistance and/or standard deviation in baseline, as well as artifact rejection). Peak currents were then calculated and population data were fit using a 4-parameter logistic equation as described by the Hill Equation. Currents were measured on an automated patch clamp system (Fluxion Biosciences) following 1 second addition of drug and the EC50 values calculated are tabulated below in Table 13.

[8] = YFP quench plate reader assay, response to TC-5619; conditions: LX293T YFP reporter cells
Text: as §1, §2, §3, §4, §5

B1: Y115D, L131E in SEQ ID NO: 33: engineered chimeric α7-nAChR/GlyRα1 LGIC receptor: SEQ ID NO: 33 with substitutions Y115D and L131E (protein)
chain: MRCSPGGVWLALAASLLHVSLQGEFQRKLYKELVKNYNPLERPVANDSQPLTVYFSLSLLQIMDVDEKNQVLTTNIWLQMSWTDHYLQWNVSEYPGVKTVRFPDGQIWKPDILLDNSADERFDATFHTNVEVNSSGHCQYLPPGIFKSSCPMDLKNFPMDVQTCKLKFGSWSYGGWSLDLQMQEADISGYIPNGEWDLVGIPGKRSERFYECCKEPYPDVTFTVTMRRRMGYYLIQMYIPSLLIVILSWISFWINMDAAPARVGLGITTVLTMTTQSSGSRASLPKVSYVKAIDIWMAVCLLFVFSALLEYAAVNFVSRQHKELLRFRRKRRHHKSPMLNLFQEDEAGEGRFNFSAYGMGPACLQAKDGISVKGANNSNTTNPPPAPSKSPEEMRKLFIQRAKKIDKISRIGFPMAFLIFNMFYWIIYKIVRREDVHNQ
modifications: synthetic sequence of chimeric LGIC
For B1, the “percent quench of YFP fluorescence, 30 nM fac” value ([1]; 30 nM RG3487) was 45.76%, the “percent quench of YFP fluorescence, 100 nM fac” value ([1]; 100 nM RG3487) was 63.92% and the “percent quench of YFP fluorescence, 300 nM fac” value ([1]; 300 nM RG3487) was 79.43%. The “percent quench of YFP fluorescence, 10 uM fac” value ([1]; 10 uM RG3487) was 80.1%, the “percent quench of YFP fluorescence, 30 uM fac” value ([1]; 30 uM RG3487) was 84.91% and the “percent quench of YFP fluorescence, 10 uM ach” value ([2]; 10 uM acetylcholine) was 15.45%. For the same molecule, the “percent quench of YFP fluorescence, 100 uM ach” value ([2]; 100 uM acetylcholine) was 13.77%, the “percent quench of YFP fluorescence, 1 mM ach” value ([2]; 1 mM acetylcholine) was 27.42% and the “percent quench of YFP fluorescence, 3 mM ach” value ([2]; 3 mM acetylcholine) was 53.62%. The “percent quench of YFP fluorescence, 100 nM azd” value ([3]; 100 nM AZD-0328) was 24.49%, the “percent quench of YFP fluorescence, 300 nM azd” value ([3]; 300 nM AZD-0328) was 45.34% and the “percent quench of YFP fluorescence, 30 uM azd” value ([3]; 30 uM AZD-0328) was 71.21%. The “percent quench of YFP fluorescence, 1 uM tc6” value ([4]; 1 uM TC-6987) was 36.07%, the “percent quench of YFP fluorescence, 10 uM tc6” value ([4]; 10 uM TC-6987) was 31.35% and the “percent quench of YFP fluorescence, 500 uM tc6” value ([4]; 500 uM TC-6987) was 28.18%. For the same molecule, the “percent quench of YFP fluorescence, 100 nM apn” value ([5]; 100 nM APN-1125) was −5.71%, the “percent quench of YFP fluorescence, 1 uM apn” value ([5]; 1 uM APN-1125) was 13.03% and the “percent quench of YFP fluorescence, 30 uM apn” value ([5]; 30 uM APN-1125) was 25.2%. For the same molecule, the “percent quench of YFP fluorescence, 50 nM abt” value ([6]; 50 nM ABT-126) was −1.68%, the “percent quench of YFP fluorescence, 100 nM abt” value ([6]; 100 nM ABT-126) was −2.25% and the “percent quench of YFP fluorescence, 300 nM abt” value ([6]; 300 nM ABT-126) was −2.37%. The “percent quench of YFP fluorescence, 1 uM abt” value ([6]; 1 uM ABT-126) was 3.68%, the “EC50 AZD-0328” value [7] was “no activity” and the “percent quench of YFP fluorescence, 1 nM brd” value ([8]; 1 nM TC-5619) was −1.52%. For the same molecule, the “percent quench of YFP fluorescence, 3 nM brd” value ([8]; 3 nM TC-5619) was −5.35%, the “percent quench of YFP fluorescence, 10 nM brd” value ([8]; 10 nM TC-5619) was −3.49% and the “percent quench of YFP fluorescence, 30 nM brd” value ([8]; 30 nM TC-5619) was 2.16%. For the same molecule, the “percent quench of YFP fluorescence, 100 nM brd” value ([8]; 100 nM TC-5619) was 4.18%, the “percent quench of YFP fluorescence, 300 nM brd” value ([8]; 300 nM TC-5619) was 70.2% and the “percent quench of YFP fluorescence, 1 uM brd” value ([8]; 1 uM TC-5619) was 43.11%.
